Measurements reported in publication PMC2187453.

Target: TCGF receptor on B6.1 cells (mouse CTL line B6.1.SF.1) (mouse (endogenous in the B6.1 CTL line))
Assay: radioligand binding

Sequence of T cell growth factor (TCGF), human, biosynthetically radiolabeled (3H-TCGF) (P60568 21-153): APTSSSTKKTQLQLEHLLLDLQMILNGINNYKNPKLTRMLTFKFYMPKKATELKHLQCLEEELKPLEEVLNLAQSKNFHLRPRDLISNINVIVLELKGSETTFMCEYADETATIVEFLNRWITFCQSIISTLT

Kd: 0.022 nM
Sequence: T cell growth factor (TCGF), human, biosynthetically radiolabeled (3H-TCGF) (from UniProt P60568 21-153) (ligand)
